Target: T1, α and γ ENaC (Rattus norvegicus, UniProt P37089+P37091)
T1 construct: expressed in transfected cells; host or cells: Xenopus laevis oocytes (cRNA injection)
T1 sequence (P37089 1-698): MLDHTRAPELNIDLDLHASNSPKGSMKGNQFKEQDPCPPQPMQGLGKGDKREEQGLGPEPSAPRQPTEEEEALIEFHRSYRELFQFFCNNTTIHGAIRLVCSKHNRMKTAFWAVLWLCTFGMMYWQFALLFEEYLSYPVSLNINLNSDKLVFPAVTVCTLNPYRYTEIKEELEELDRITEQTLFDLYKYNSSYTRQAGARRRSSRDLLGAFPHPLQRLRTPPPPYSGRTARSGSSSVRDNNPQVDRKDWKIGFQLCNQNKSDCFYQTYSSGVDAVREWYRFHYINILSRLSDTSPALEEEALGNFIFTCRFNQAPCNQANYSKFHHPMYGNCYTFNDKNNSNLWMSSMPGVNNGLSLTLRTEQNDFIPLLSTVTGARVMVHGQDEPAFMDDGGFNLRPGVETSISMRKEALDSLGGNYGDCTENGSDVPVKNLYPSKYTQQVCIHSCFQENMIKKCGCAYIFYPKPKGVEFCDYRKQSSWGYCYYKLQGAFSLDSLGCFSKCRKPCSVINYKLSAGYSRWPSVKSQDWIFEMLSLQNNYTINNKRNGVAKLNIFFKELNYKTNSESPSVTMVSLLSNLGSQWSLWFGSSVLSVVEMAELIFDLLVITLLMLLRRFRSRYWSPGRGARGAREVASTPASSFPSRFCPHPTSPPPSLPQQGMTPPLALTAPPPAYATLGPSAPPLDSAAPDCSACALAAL
T1 sequence (P37090 1-638 partner): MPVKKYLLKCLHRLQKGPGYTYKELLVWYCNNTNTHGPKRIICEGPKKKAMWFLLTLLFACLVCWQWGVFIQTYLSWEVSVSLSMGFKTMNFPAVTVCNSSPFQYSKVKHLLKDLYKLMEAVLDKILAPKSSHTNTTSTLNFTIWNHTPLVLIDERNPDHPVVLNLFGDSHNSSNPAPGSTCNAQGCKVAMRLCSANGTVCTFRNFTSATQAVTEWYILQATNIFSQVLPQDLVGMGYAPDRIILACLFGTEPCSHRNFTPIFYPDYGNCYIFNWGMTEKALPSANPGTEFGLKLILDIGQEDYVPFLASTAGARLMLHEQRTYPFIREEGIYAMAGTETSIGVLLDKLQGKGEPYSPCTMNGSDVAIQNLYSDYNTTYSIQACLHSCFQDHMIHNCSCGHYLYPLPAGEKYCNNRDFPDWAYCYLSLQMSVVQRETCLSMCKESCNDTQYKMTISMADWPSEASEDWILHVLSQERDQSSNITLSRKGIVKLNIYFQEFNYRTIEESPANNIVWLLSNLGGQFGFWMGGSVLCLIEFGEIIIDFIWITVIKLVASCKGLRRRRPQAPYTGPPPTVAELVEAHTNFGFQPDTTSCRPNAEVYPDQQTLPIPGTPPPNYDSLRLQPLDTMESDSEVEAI
T1 sequence (P37091 1-650): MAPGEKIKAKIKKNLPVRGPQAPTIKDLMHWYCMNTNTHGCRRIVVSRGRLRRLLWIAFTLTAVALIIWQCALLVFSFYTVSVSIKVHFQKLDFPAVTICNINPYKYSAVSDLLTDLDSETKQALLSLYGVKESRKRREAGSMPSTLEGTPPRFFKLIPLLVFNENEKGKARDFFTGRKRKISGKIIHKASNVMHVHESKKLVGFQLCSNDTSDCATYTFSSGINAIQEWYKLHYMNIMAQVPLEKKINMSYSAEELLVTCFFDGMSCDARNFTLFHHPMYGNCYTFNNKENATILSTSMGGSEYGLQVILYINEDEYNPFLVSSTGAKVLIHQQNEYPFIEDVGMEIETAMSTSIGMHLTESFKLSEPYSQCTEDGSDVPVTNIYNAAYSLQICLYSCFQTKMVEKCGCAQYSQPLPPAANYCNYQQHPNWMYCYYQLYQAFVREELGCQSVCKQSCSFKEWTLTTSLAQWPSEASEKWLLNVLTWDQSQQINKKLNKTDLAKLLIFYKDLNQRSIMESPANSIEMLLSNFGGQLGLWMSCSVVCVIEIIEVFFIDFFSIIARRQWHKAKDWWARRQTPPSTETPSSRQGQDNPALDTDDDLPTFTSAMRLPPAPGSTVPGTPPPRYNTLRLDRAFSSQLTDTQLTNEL
Assay: ENaC cleavage by CAP2 in Xenopus oocytes (Western blot, V5 antibody)
Format: cell-based
Conditions: αβγENaC, CAP2 and SPLUNC1 co-expressed in oocytes
Protocol: Western Blotting: Airway surface liquid collected as described above was also placed in protease-inhibitor cocktail (Roche) for Western blotting. The protein concentration was determined using the BCA Assay (Pierce). To obtain SPLUNC1 from Xenopus oocytes, oocytes were lysed in Laemmli buffer or oocyte media was directly sampled and placed in Laemmli buffer. Proteins were resolved using SDS-PAGE and transferred to a Polyvinylidene Fluoride (PVDF) membrane. The membrane was then probed using αSplunc1 or αV5 antibodies and a Donkey anti-Mouse HRP antibody (R&D). The blots were then incubated with ECL reagents (Pierce).
Co-Immunoprecipitation: Xenopus oocytes were injected with either HA-N-Terminus or V5-C-Terminus (HA-NT/V5-CT) tagged subunits in combination with wild type (WT) untagged rat αβγENaC subunits (0.3 ng cRNA each) with or without V5-tagged SPLUNC1 and CAP2 (1 ng cRNA each). After 24 h, 40 eggs per experimental condition were lysed with buffer containing (in mM): 20 Tris, 50 NaCl, 50 NaF, 10 β-glycerophosphate, 5 Na4P2O7 pyrophosphate, 1 EDTA, pH 7.5 and protease inhibitors (complete, Roche), aprotinin (Sigma). Cell lysates were prepared by passing the eggs through a 27 G1/2 needle twice and by centrifugation at 3,600 rpm for 10 minutes at 4° C. Supernatants were transferred to new tubes and samples were spun at 14,000 rpm for 20 minutes at 4° C. […]

B1: SPLUNC1: human SPLUNC1, 256 amino acid secreted PLUNC protein (SEQ ID NO:1); rSPLUNC1 = V5/6His-tagged protein purified from HEK293 media (protein, listed as Homo sapiens)
chain: MFQTGGLIVFYGLLAQTMAQFGGLPVPLDQTLPLNVNPALPLSPTGLAGSLTNALSNGLLSGGLLGILENLPLLDILKPGGGTSGGLLGGLLGKVTSVIPGLNNIIDIKVTDPQLLELGLVQSPDGHRLYVTIPLGIKLQVNTPLVGASLLRLAVKLDITAEILAVRDKQERIHLVLGDCTHSPGSLQISLLDGLGPLPIQGLLDSLTGILNKVLPELVQGNVCPLVNEVLRGLDITLVHDIVNMLIHGLQFVIKV
modifications: V5/6His tag
notes: rSPLUNC1 = V5/6His-tagged protein purified from HEK293 media
  α and γ ENaC cleavage by CAP2: only full-length α and γ ENaC subunits could be observed

Reference: patent US9549967B2, “Regulation of sodium channels by PLUNC proteins” (The University of North Carolina at Chapel Hill, priority 2009, dated 2017)
